In patent US20150224191A1 (VEGENICS, published 2015):

Tests used:
[1] = biological target: T1, VEGF-C (human, UniProt P49767 103-227, limits assumed); experiment: BiaCore (SPR); format not described
T1 construct: The assay protein was probably a processed or mature form; also called vascular endothelial growth factor C
T1 sequence: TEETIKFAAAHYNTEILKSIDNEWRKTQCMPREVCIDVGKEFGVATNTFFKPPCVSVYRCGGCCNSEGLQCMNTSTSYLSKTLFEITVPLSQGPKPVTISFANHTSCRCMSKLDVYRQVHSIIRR

[2] = biological target: T1, VEGF-C; experiment: cell-based or functional assay
[3] = biological target: T2, VEGF-C Monomer; experiment: direct binding ELISA, antigen coated as capture antigen, bound VGX-100 detected with rabbit anti-human IgG-HRP, Abs 450 nm
T2 construct: a form of m2; also called monomer form of VEGF-C
T2 chain: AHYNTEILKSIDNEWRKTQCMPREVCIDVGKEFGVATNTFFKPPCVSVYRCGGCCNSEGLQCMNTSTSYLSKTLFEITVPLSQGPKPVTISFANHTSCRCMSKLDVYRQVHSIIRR

[4] = biological target: T3, VEGF-C Dimer (Homodimer of two identical chains. The nature of the dimer linkage is not stated in the passages seen.); experiment: as above
T3 construct: a form of m2; also called dimer form of VEGF-C
T3 chain 1: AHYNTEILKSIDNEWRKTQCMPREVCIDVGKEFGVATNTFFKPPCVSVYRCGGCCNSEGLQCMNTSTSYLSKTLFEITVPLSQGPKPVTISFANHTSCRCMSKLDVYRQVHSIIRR
T3 chain 2: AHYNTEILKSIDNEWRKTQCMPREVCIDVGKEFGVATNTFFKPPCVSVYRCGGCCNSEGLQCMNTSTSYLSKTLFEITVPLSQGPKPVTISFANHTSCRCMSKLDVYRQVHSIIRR

[5] = biological target: T1, VEGF-C; experiment: cell-based or functional assay; remark: listed apart in the source

B1: VEGF-C antibody VGX-100 (antibody, human IgG1, lambda, V domains shown)
VH: EVRLLESGGGLVQPGGSLRLSCAASGFTFRPRAMAWVRQAPGKGLEWVSSISAQGASAYYADSVKGRFTISRDNSKNTLYLQMNSLRAEDTAVYYCARDLSVSGFGPWGRGTMVTVSS
VL: SYELTQPPSSSGTPGQRVTISCSGSSSNIGRHTVSWYQQVPGTAPKLLIYSDDHRPSGVPDRFSASKSGTSASLTITGLQSEDEADYYCAAWDDSLNGPWVFGGGTKLTVLG
- Kd [1]: 1.8 nM
- IC50 (read off the curve); [3H]-thymidine incorporation of BA/F3-VEGFR-3/EpoR cells as percent of ligand alone; blocked: VEGF-C binding to VEGFR-3 [2]: ~0.04 µg/mL
- EC50 (read off the curve) [3]: ~0.001 µg/mL
- EC50 (read off the curve) [4]: ~0.001 µg/mL
- IC50 (read off the curve); [3H]-thymidine incorporation of BA/F3-VEGFR-2/EpoR cells as percent of ligand alone; blocked: VEGF-C binding to VEGFR-2 [5]: ~0.03 µg/mL
